Values of other authors, collected in paper PMC7956452.

Target: RNA polymerase II CTD phosphorylated heptapeptide (Homo sapiens)

PQBP-1 (from UniProt O60828)
Kd: 154 µM
